According to publication PMC6692047, “Ddc2^ATRIP promotes Mec1^ATR activation at RPA-ssDNA tracts” (PLoS Genetics, 2019):
Substitutions are numbered along the chain they refer to.

Target: T1, Replication protein A (RPA), consisting of Rfa1, Rfa2 and Rfa3 (budding yeast, UniProt P22336 1-621; P26754 1-273; P26755 1-122)
T1 construct: Rfa1, subunit of budding yeast RPA; Rfa2, subunit of budding yeast RPA; Rfa3, subunit of budding yeast RPA; also called budding yeast RPA protein; source: purified as described [83]; copies: + +
Assay: pull-down; streptavidin beads coated with biotinylated oligonucleotide bio-oligo(dN)80 (5 pmol), incubated with RPA (1 pmol) for 30 min, then with Mec1-Ddc2, Mec1-Ddc2-S4, MBP, MBP-Ddc2 or MBP-Ddc2-S4 (0.5 pmol) for 30 min; buffer B (20 mM Tris-HCl pH 7.5, 100 mM NaCl, 0.01% NP-40, 10% glycerol, 100 μg/ml BSA), 30°C; immunoblot of captured proteins
Conditions: both partners purified

T1 sequence (P22336 whole entry, chain 1 of 3): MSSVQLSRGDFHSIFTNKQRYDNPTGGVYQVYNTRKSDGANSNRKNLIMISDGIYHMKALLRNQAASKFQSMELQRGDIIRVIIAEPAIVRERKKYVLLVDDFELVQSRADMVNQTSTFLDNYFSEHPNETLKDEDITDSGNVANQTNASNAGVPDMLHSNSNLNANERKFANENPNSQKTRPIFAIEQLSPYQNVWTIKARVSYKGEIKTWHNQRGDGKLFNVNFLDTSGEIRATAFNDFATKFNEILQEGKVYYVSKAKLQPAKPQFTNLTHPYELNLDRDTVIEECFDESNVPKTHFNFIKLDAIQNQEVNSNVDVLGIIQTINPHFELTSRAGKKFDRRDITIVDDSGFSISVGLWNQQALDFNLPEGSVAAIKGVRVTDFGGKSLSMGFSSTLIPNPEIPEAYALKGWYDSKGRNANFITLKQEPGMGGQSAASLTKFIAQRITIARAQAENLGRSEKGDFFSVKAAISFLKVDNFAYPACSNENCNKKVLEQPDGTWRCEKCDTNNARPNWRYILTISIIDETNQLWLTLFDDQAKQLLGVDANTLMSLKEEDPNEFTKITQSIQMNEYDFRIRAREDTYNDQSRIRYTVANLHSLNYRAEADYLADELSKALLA
T1 sequence (P26754 whole entry, chain 2 of 3): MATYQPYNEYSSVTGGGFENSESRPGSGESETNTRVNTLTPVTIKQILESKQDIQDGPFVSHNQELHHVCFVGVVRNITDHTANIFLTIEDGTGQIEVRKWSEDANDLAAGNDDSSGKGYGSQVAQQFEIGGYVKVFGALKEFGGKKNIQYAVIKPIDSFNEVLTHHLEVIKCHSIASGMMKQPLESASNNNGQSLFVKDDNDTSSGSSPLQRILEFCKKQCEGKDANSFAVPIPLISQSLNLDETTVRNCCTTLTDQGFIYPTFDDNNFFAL
T1 sequence (P26755 whole entry, chain 3 of 3): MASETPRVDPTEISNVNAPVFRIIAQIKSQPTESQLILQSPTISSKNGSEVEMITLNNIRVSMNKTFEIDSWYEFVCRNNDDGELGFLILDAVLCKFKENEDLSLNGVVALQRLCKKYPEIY

B1: MBP-Ddc2 (natural protein, budding yeast, UniProt Q04377 1-747, looked up)
chain: MRRETVGEFSSDDDDDILLELGTRPPRFTQIPPSSAALQTQIPTTLEVTTTTLNNKQSKNDNQLVNQLNKAQGEASMLRDKINFLNIEREKEKNIQAVKVNELQVKHLQELAKLKQELQKLEDEKKFLQMEARGKSKREVITNVKPPSTTLSTNTNTITPDSSSVAIEAKPQSPQSKKRKISDNLLKKNMVPLNPNRIIPDETSLFLESILLHQIIGADLSTIEILNRLKLDYITEFKFKNFVIAKGAPIGKSIVSLLLRCKKTLTLDRFIDTLLEDIAVLIKEISVHPNESKLAVPFLVALMYQIVQFRPSATHNLALKDCFLFICDLIRIYHHVLKVPIHESNMNLHVEPQIFQYELIDYLIISYSFDLLEGILRVLQSHPKQTYMEFFDENILKSFEFVYKLALTISYKPMVNVIFSAVEVVNIITSIILNMDNSSDLKSLISGSWWRDCITRLYALLEKEIKSGDVYNENVDTTTLHMSKYHDFFGLIRNIGDNELGGLISKLIYTDRLQSVPRVISKEDIGMDSDKFTAPIIGYKMEKWLLKLKDEVLNIFENLLMIYGDDATIVNGEMLIHSSKFLSREQALMIERYVGQDSPNLDLRCHLIEHTLTIIYRLWKDHFKQLREEQIKQVESQLIMSLWRFLVCQTETVTANEREMRDHRHLVDSLHDLTIKDQASYYEDAFEDLPEYIEEELKMQLNKRTGRIMQVKYDEKFQEMARTILESKSFDLTTLEEADSLYISMGL
notes: Ddc2 (ATRIP homolog), budding yeast; also called MBP-fused Ddc2; pMAL-Ddc2; source: E. coli Rosetta, purified (amylose resin)
binding result: binds

B2: MBP-Ddc2-S4 (natural protein, budding yeast, UniProt Q04377 1-747, looked up)
chain: B1 chain with K263E, H382Y
notes: Ddc2 (ATRIP homolog), budding yeast, with the two ddc2-S4 substitutions; also called MBP-fused Ddc2-S4; pMAL-Ddc2-S4; source: E. coli Rosetta, purified (amylose resin)
binding result: binds
